Experimental data from patent CN115873113A (SHANGHAI INST MATERIA MEDICA CAS, dated 2023).

Columns and labels:
[1] = biological target: T1, Biotin-CaSR蛋白 (人体细胞外钙敏感受体, Human extracellular calcium-sensing receptor) (human, UniProt P41180 20-870, limits assumed, biotinylated (Biotin-CaSR); site not stated); experiment: ELISA, Biotin-CaSR on NeutrAvidin plate, nanobody titrated 1e-11 to 1e-6 mol/l, anti-HA detection
T1 construct: Purified, detergent-solubilised CaSR; It was biotinylated and captured on NeutrAvidin plates for ELISA or on streptavidin biosensors for Octet
T1 sequence (looked up): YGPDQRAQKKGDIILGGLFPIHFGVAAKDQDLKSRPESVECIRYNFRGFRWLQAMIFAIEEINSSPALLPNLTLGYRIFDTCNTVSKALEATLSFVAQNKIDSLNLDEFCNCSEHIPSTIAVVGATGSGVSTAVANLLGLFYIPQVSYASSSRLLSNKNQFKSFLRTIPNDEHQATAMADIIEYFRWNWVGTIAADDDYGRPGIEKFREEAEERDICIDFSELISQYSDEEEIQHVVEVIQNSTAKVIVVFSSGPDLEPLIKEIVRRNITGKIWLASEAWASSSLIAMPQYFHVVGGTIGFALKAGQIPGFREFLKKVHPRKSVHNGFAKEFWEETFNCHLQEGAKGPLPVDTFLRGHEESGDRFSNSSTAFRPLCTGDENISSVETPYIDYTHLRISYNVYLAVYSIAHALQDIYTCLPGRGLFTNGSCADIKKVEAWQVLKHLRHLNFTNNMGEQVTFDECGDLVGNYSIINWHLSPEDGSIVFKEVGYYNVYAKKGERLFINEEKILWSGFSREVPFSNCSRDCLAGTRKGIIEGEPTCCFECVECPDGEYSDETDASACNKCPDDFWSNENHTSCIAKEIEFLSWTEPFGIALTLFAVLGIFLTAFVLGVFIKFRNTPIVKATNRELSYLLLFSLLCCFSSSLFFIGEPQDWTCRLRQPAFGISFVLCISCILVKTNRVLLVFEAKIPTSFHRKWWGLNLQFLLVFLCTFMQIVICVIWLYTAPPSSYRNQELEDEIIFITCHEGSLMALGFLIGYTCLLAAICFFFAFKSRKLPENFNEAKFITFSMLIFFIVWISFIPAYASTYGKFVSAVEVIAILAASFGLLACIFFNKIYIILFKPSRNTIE

CaSR (细胞内钙流实验中的受体) = biological target: T2, CaSR (细胞内钙流实验中的受体) (human, UniProt P41180 20-1078); experiment: cell-based or functional assay
T2 sequence (looked up): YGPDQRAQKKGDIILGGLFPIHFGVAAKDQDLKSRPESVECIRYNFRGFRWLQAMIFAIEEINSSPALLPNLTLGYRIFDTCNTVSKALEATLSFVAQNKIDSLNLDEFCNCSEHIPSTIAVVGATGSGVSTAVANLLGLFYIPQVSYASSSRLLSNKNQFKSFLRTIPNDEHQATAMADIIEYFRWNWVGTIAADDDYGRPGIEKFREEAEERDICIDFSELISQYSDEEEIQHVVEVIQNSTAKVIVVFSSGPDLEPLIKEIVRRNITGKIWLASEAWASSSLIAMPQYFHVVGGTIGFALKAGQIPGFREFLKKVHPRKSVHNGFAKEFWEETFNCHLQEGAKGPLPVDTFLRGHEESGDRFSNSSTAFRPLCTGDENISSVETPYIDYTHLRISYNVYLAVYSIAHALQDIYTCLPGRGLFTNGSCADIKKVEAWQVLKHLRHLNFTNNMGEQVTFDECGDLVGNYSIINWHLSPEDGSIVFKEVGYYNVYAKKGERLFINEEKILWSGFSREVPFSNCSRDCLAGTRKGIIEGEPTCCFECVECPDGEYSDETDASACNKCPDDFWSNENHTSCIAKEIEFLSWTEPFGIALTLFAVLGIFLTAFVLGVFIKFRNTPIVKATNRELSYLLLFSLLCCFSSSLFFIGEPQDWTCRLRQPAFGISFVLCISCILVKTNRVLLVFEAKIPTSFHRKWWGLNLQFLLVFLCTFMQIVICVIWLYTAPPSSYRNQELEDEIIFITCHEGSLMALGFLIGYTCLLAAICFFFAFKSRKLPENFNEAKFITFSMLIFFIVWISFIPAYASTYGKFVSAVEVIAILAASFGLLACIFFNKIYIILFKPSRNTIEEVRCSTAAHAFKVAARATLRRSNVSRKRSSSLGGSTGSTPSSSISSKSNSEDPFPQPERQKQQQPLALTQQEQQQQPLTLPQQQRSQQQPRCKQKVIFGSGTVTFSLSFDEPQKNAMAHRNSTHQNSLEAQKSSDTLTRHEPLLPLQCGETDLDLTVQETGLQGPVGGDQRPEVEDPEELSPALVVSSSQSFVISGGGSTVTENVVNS

[2] = biological target: T1, Biotin-CaSR蛋白 (人体细胞外钙敏感受体, Human …); experiment: BLI (Octet-Red96), Biotin-CaSR on streptavidin biosensor, nanobody in solution

B1: 纳米抗体NB88 (VHH)
VHH: QVQLQESGGGSVQAGESLRLSCAASRYGYSRNWMGWFRQPPGKEREGVAVIYTGGSKTAYADAVKGRFIISLDNANNTVYLQMNSLKPEDTAMYYCAAGLVAYGRRWSPEAYKYWGQGTQVTVSS
notes: Camel VHH expressed in E. coli and purified on a nickel column; It was detected through an HA tag; also called 抗体株NB88
Which results are given for B1?
EC50 [1]: 1; 钙流 IC50 (细胞外钙离子浓度1.2mM) (CaSR (细胞内钙流实验中的受体)): 101 nM; Kd [2]: 3.9 nM

B2: 纳米抗体NB32 (VHH)
VHH: QVQLQESGGGSVQAGGSLTLSCAASEYKHRYSTYSMGWFRQAPGKEREGVAAIYSDGGTRYADSVKGRFTISKDNAKSTLYLLMNSLKPEDTAMYYCAASQTFRGWYPYEYNYWGQGTQVTVSS
notes: Camel VHH expressed in E. coli and purified on a nickel column; It was detected through an HA tag; also called 抗体株NB32
What does the source list for B2?
EC50 [1]: 3; 钙流 IC50 (细胞外钙离子浓度1.2mM) (CaSR (细胞内钙流实验中的受体)): 301 nM; Kd [2]: 3.2 nM

B3: 纳米抗体2D11 (VHH)
VHH: QVQLQESGGGSVQAGGSLRLSCAASGFPISTYDMGWFRQAPGKEREGVVGITDSFSIKYEDSVKGRFTISRDNAKNALYLQMNSLKPEDTGMYYCAAGDARWSLLLRAEQYNYWGQGTQVTVSS
notes: Camel VHH expressed in E. coli and purified on a nickel column; It was detected through an HA tag; also called 抗体株2D11
For B3, which EC50 [1] is on record?
Its EC50 is 1.9.

And the “钙流 IC50 (细胞外钙离子浓度1.2mM)” value (CaSR (细胞内钙流实验中的受体))?
The value was 41 nM.

What about the Kd [2] of the same binder?
The Kd was 0.24 nM.

B4: 纳米抗体1C12 (VHH)
VHH: QVQLQESGGGSVQAGGSLRLSCTASRYTYNSPLYMAWFRQAPGKEREGVAHIDSDGSITYTDSVKGRFTISRDNAKTTLYLQMNNLNPEDTAMYYCAADPLHRWSHRLEAIGYRYWGQGTQVTVSS
notes: Camel VHH expressed in E. coli and purified on a nickel column; also called 抗体株1C12
B4 was tested. Which EC50 [1] did it give?
The EC50 was 2.1.

What about the “钙流 IC50 (细胞外钙离子浓度1.2mM)” value (CaSR (细胞内钙流实验中的受体)) of the same binder?
Its value is 107 nM.

And the Kd [2]?
Its Kd is 0.9 nM.

B5: 纳米抗体2D4 (VHH)
VHH: LQESGGGSVQIGGSLRLSCAASGYTYMRYSSFCMGWFRQAPGKEREGVAAIDSGRRTTHADSVKGRFTISRDNAKNTLYLQMNSLKPEDTAMYYCAARDVGYCGGYWARRDFAYWGQGTQVTVSS
notes: Camel VHH expressed in E. coli and purified on a nickel column; It was detected through an HA tag; also called 抗体株2D4
For B5, which EC50 [1] is on record?
The EC50 was 0.9.

What about the “钙流 IC50 (细胞外钙离子浓度1.2mM)” value (CaSR (细胞内钙流实验中的受体)) of the same binder?
The value was 65 nM.

What about the Kd [2] of the same binder?
The Kd was 0.46 nM.
